{"source": "the DeepSol protein solubility set"}
{"assay": "soluble on expression in E. coli; label from the status in PepcDB or PDB records"}
{"sequence": "MMKMIIAIVQDQDSQELADQLVKNNFRATKLATTGGFLRAGNTTFLCGVNDDRVDEILSVINQTCGNREQLVSPITPMGGSADSYIPYPVEVEVGGATVFVMPVDAFHQFLEHHHHHH", "soluble on expression in E. coli": "soluble"}
{"sequence": "MSLNNIAPQSPVMRRLTLQDNPAIASVIRQVYAEYGLTADKGYTVADPNLDELYQVYSQPGHAYWVVEYNGEVVGGGGIAPLTGSEADICELQKMYFLPAIRGKGLAKKLALMAMEQAREMGFKRCYLETTAFLKEAIALYEHLGFEHIDYALGCTGHVDCEVRMLRELEGHHHHHH", "soluble on expression in E. coli": "not soluble"}
{"sequence": "MGSDKIHHHHHHYYYARGTYTHYNLDFDQDVTHLLDLGMKQISLEPVVAQPSDPYAFQEGDLPEILKTYDRLGEELLARRRKGEDFSFFHFNVALDQGPCLPKRLSGCGAGHEYVAISPEGDLYPCHQFVGQEEFKMGSLGQEGVPLNPEIIAKFRSAHVYSKAACRQCWARFSCSGGCHSANHAFSGQLNEVYALGCEFQKKRLEVALYMKIKEA", "soluble on expression in E. coli": "not soluble"}
{"sequence": "MSRQTEIVRRMVSAFNTGRTDDVDEYIHPDYLNPATLEHGIHTGPKAFAQLVGWVRATFSEEARLEEVRIEERGPWVKAYLVLYGRHVGRLVGMPPTDRRFSGEQVHLMRIVDGKIRDHRDWPDFQGTLRQLGDPWPDDEGWRP", "soluble on expression in E. coli": "soluble"}
{"sequence": "MGSDKIHHHHHHMNDFIKFTGPADVLAFIPHTLGQTPTESFVALTMQGNKIGATLRVDAPFGQDPVGYAQTIVSYLTADEAATGSLLVIYTDESTTDGSSPYAGHVQALSTELETAGMPLQDAWLVTSELWRNYHCTDTGCCPDQPLDAITTSNGNAALIYRGSAVTGFIAPAPFTGDETAREAITARKPDGWPEDLEASRAAWARVLKDPKSLTTETAYQLAGALQHPTIRDYMMGDIVPHAPEQFTSVMLGVFPTRPDWARVDTAQEVAFELMKATPEGQRAPMLCLIGWLEWLKGQSSFAARYFKLALEDTAGYRLAELLDELVNRGLLADCSRDRKKAYDRRLKR", "soluble on expression in E. coli": "not soluble"}
{"sequence": "GSHMVEMRMKKCPKCGLYTLKEICPKCGEKTVIPKPPKFSLEDRWGKYRRMLKRALKNKNKAE", "soluble on expression in E. coli": "soluble"}
{"sequence": "WNIHGKESCDVQLYIKRQSEHSILAGDPFELECPVKYCANRPHVTWCKLNGTTCVKLEDRQTSWKEEKNISFFILHFEPVLPNDNGSYRCSANFQSNLIESHSTTLYVTDVKHHHHHHHH", "soluble on expression in E. coli": "soluble"}
{"sequence": "MGSDKIHHHHHHMEMKMQQIDILRKLSEVWRLFGDMPDDTTLSVDLAALYLGISVKTLARYRQSGGGPSYIQYQSEGSQARNQRVNYLLKDLRSWRDNHKVSNTMHAAQVRGLAFDSLLDFCKPQPFWQVTDKSSSRDKSKILSHALTIPDDDFKKKLLEPNADIVWISIEEALFNEWQTADERQKWNDIFKEFLNEIISASNAAQEKHILNAILK", "soluble on expression in E. coli": "not soluble"}
{"sequence": "NDGTTVTPLCTSPVVQCGEGTLFGGDEPARTWFTAAQSSGLAASGNLPSYDPKFNRGVSGSFGTSYVGREGESVRKELSAKGYKVTMTSAPGDGIPKGSVVNVIAPVPLKPGGTIELFISDGTRPRTTPPSTTRRPNPTEEVVPGTGVSQNDLDDLAHQLQQLLPGF", "soluble on expression in E. coli": "not soluble"}
{"sequence": "MGSDKIHHHHHHMECSGLYPRRNRSSHNQSEFQVSFMATELSALPANHPRVTFGKVGVLLVNLGTPDGTDYWPMRRYLAEFLSDKRVIEWSRLYWYPILYGIVLNKRPQKVGKAYEEIWNHERNESYLRTYTRSQGELMAAALKDFPNVVVDWAMRYGQPSIASRIDALKEQGCEKILLFPLYPQYAASTTATVNDKAFEHLMKLRWQPAIRTVPPYHDDPAYIEGLAASVKNHLATLDWEPEMLITSFHGIPQSYFKKGDPYYCHCQKTARLLREALGRTEKNFMITFQSRFGPEEWLQPYTDKTVEKLASEGIKRIAVMNPGFVSDCLETLEEIAGEAGEIFLHNGGEKFTHIPCLNDSTEGMNVLEKVVRRELQGWV", "soluble on expression in E. coli": "not soluble"}
{"sequence": "MNQGERNAVSLLKDKLFNEEGKPVNLIFCYTILQMKVAERIMAQHPGERFYVVLMSENRNEKYDYYFNQIKDKAERAYFFYLPYGLNKSFNFIPTMAELKVKSMLLPKVKRIYLASLEKVSIAAFLSTYPDAEIKTFDDGTNNLIRESSYLGGEFAVNGAIKRNFARMMVGDWSIAKTRNASDEHYTIFKGLKNIMDDGRRKMTYLPLFDASELKAGDETGGTVRILLGSPDKEMKEISEKAAKNFNIQYVAPHPRQTYGLSGVTALNSPYVIEDYILREIKKNPHTRYEIYTFFSGAALTMKDFPNVHVYALKPASLPEDYWLKPVYALFRQADIPILAFDDKLEHHHHHH", "soluble on expression in E. coli": "not soluble"}
{"sequence": "MHEYSIVSALIEQCEQYAKANQATKVTRVEIKLGVMSGVEPALLQTAFETFKLDGICREAKLCMTLQPLVIKCADCQQESVLDERSIVCPACNSYHTRVLDGEEMLLMQLEMEQAEDA", "soluble on expression in E. coli": "soluble"}
{"sequence": "AASDSAQLKSAREDIKELLKTKFCHPIMVRLGWHDAGTYNKNIEEWPQRGGANGSLRFDVELKHGANAGLVNALNLLKPIKDKYSGVTYADLFQLASATAIEEAGGPKIPMKYGRVDVTEPEQCPEEGRLPDAGPPSPAQHLRDVFYRMGLNDKEIVALSGAHTLGRSRPDRSGWGKPETKYTKDGPGAPGGQSWTAQWLKFDNSYFKDIKERRDEDLLVLPTDAALFEDPSFKVYAEKYAADPEAFFKDYAEAHAKLSNLGAKFGPAEGFSLEGSPAGAAPEKFVAAKYSTGKD", "soluble on expression in E. coli": "soluble"}
{"sequence": "MSHLRIPANWKVKRSTPFFTKENVPAALLSHHNTAAGVFGQLCVMEGTVTYYGFANETATEPEVKVVINAGQFATSPPQYWHRVELSDDARFNIHFWVEEDHQGEEMYQQKKA", "soluble on expression in E. coli": "not soluble"}
{"sequence": "MPAWAARLGASRDQQRALEEERSRTQAALQVMPHMLIELDADERLLRGHPGWLDRLPTLGPMAPGQGLQDFLPVDLATEVRRVLAEVETTGAPVSRDWQVRQAGARVWLAISAARLPPLA", "soluble on expression in E. coli": "not soluble"}
{"sequence": "MKEKSSVEVRLDKWLWAARFYKTRAMAREMIEGGKVHYNGQRSKPSKIVELNATLTLRQGNDERTVIVKAITEQRRPASEAVALYEETAESVEKREKMAQARKLNALTMPHPDRRPDKKERRDLLRFKHGDSE", "soluble on expression in E. coli": "not soluble"}
{"sequence": "DDGDCKNIYRYSPKDGKFEKLNLETDVTSAFALSEYNPGIAAYIGQSDYNAGVAYLYDMKKKTSSLLADPMKPILEKIELGKTEPWNFTASDGTVITGKMCLPPNFDPNKKYPMIVYYYGGTTPTTRGISNPYCAQLFASRDYVVYVIQPSGTIGFGQEFSARHVNAWGKRTADDIIEGTKQFCKEHPFVDEKKIGCLGASYGGFMTQYLQTQTDIFAAAVSHAGISDVTSYWGEGYWGYSYNAIAAADSYPWKDPDLFTKQGSLFNADKINTPLLLLHGTVDTNVPIGESIQLFNALKILGKTVEFVTVDGENHFISDYDKRIKWHNSIMAWFARWLQ", "soluble on expression in E. coli": "not soluble"}
{"sequence": "LETLNNASKTIDLQGKISDVDGDTLSITLHGSARFSLNGTQVTFTPNGFVGLDQAVYSVEDGKGGYALANIVAISEDANPPVPNMAPTANDAQFTLDVAKNVTFNIDLVAQRLIADADGDALSIAHIYTANNRATKQGATGITYTPGAFRGVDQFTYVITDGKDGYAINAITVVVNDSTPANKIPTAGPVTAKMLHNDPAITISVNSAVSDADGDTLKIVSISGALGQASINPANALEMLYEPKGFVGTDRFVYVVSDDNGGYAMGEVTVTVTDSNPTAPVANTVQENTLLDTPINIDLSAYISDKETETANLVISNVTNATSPAVATLSGQTVIYTPNGFTGNDILTYTVTDGRHSTNGTIVISVNAHGAHAIQADNLEGGTEPNAPFIHDLSALISTTDPTAGELIVVNAIGGALGTATVTNNILTYTPKLGVFGKDRLIYTVKDSHNPAHYTQGTISI", "soluble on expression in E. coli": "not soluble"}
{"sequence": "MNQKDTRKETLEFNKLQKRLRRNVGNAITDYNMIEEGDVVMACISGGKDSFAMLDILLNLQKAAPIKFEVVAVNLDQKQPGFPEHILPEYFETLNIPYYIVDKDTYSVVKEKVPEGKTTCGLCSRLRRGTLYSFAEKIGATKLALGHHMDDIVETMFLNMFHGSRLKAMPPKLRSDDGRNVVIRPLTYCREKDLIKYAEHKDFPIIPCNL", "soluble on expression in E. coli": "not soluble"}
{"sequence": "VRKCLSDTDCTNGEKCVQKNKICSTIVEIQRCEKEHFTIPCKSNNDCQVWAHEKICNKGCCWDLL", "soluble on expression in E. coli": "soluble"}
{"sequence": "MGCSSQTHSSQKETTIPVTLHVEDAKGLPVEGVQVTIVKAPSSDEEPSTEIGEILGKTDKNGDIKWDTGRKGDYSVALTKGETSVTHHISLTEDKKDHAIPLVFKELEHHHHHH", "soluble on expression in E. coli": "soluble"}
{"sequence": "MALMNILPFARFLLDQAVNEGDIAVDATVGNGHDTVYLAERVGDFGHVFGFDIQPEAITAASARLAEHGLCGRATLFERSHSELLEALPADVHGRIAGAVFNLGYLPGGNKQIVTQPESTIEAVRQLLSVMKPGGVIVLVVYHGHPEGKRERDALLDYVRSLDQRRVHALKYEFINRQNNPPFLIALENRADGGA", "soluble on expression in E. coli": "not soluble"}
{"sequence": "MGSDKIHHHHHHMKFYNREKEVAELKRVQELAFTQNSRMIVVTGRRRIGKTSLIKEALKGTPTVYLFIGRKAESILVTDFVKIVRETLSIFVPEGIPTFTNLMQYLFEVGKTRAFNIVIDEFQEFYNIRPDVFSDMQNLWDEYKQETKINLVISGSVYSLMQKIFTDHNEPLFGRADNILCLRAFKIGVLKQIMEDLASGYSNDDLLALYTLTGGIPKYVELFCDNQALTIDKMYDFVFSENSLFIDEGRNLLITEFGKNYGTYFSILSEIANGHYTQGEIESALGGTAIGGYLSKLENVYNLITRERPIFAKPGTKKNVRYVIGDNFLNFWFKYIEQNRSYIELQNFDDLRQLAKADYPTYSGRVLEKYFKQKLAETGGFKEIGSWWETKSSIGKQRINSYEIDIVALKSSGKKALIAEVKRVPENNYSHTVFMEKVEHLKQKEMSKYDIETQVLGLKDM", "soluble on expression in E. coli": "not soluble"}
{"sequence": "MASEMKFAWLLAPDTYWDEKKTFITAALESGIDHIVDTADSGRIKKLGNLTLISPDEDADIVLVGRDGEGDGTLELPETLEYSRDIEMASELSESGRQVAAYVEIRSKAHEELARRLGRVVDYLILVGEDWKIIPLENIIADLQEEDVKLIAAVADVDEARVALETLEHGTDGVLIEPADISQIKDIAALLENIESETYELKPATITRIEPIGSGDRVCVDTCSIMGIGEGMLVGSYSQGLFLVHSESLESEYVASRPFRVNAGPVQAYVMVPGGRTRYLSELETGDEVIIVDRDGRSRSAIVGRVKIEKRPLMLVEAEYEGMKVRTLLQNAETIRLVNDKGEPVSVSELGEGDRVLVYFDESARHFGMAIKETIIEKLEHHHHHH", "soluble on expression in E. coli": "soluble"}
{"sequence": "MNKEQECSKNIFDLPREIVIYHLKSAGIFVFEELDCDDIAQTPLLIMAPSVPLHVRLERTPTINLLKCHEKPLTEDQLFLLLSKCQQHTKKCMPSEEEIDQWVEVSSSKPREQSSNRGSKKDSWNHSIFMYNFFHRRGSNKRAAKYLEKIENGKSEKIRARVSQIRNLDLGYISLPMETINLEDAKQRDKLKEKALAETAESKKGKDILNLFTNVYY", "soluble on expression in E. coli": "not soluble"}
{"sequence": "MPFFANSDPMMSKLSQIQFADAPTLKGDKYPDVDAHRIIAPIISPIMEVFDQMKENQRARDQAEKIRKDREDHPLSTSRSLWEMFQRLQRPTTTTTEAPPLIERLFKPYIEPWQKQLDDFSKDMAGITLIPTTTTTPAPTTTTTPNFLEKSLSMFFPSLRRKPQSIPTLPPTTTPTPRLFDPEMFDRLFFKRDKRQATIAPAPKFDIFTVPPPPPLFQEWEKPILSLSNPFTLNPLMKMFTTPSPPQTLAPLPKIPEPNPYEIKKGLPEPQFKLQDPFYNPLFPSRKSKMFDFLAGGEAGRLLG", "soluble on expression in E. coli": "not soluble"}
